Experimental data from paper PMC12777564, “Proposal of metagenomic-origin LRA-5 as a precursor of active β-lactamases through Tyr69Gln and Val166Glu amino acid substitutions: a functional and structural analysis” (Antimicrobial Agents and Chemotherapy, 2025).

What was measured:
[1] = test system: CC(=O)OCC1=C(C(=O)O)N2C(=O)[C@@H](NC(=O)Cc3cccs3)[C@H]2SC1; assay: purified protein, by the assay type; parameters: steady-state beta-lactam hydrolysis kinetics with purified LRA-5; Km (apparent Km via nitrocefin competition for poor substrates); conditions: pH 7.5
Method: (§1) For low Km values, the kcat values were derived by complete hydrolysis time courses as described by De Meester et al. ([41]). For poor substrates that behave as competitive inhibitors, the Ki was obtained by monitoring the residual activity of the enzyme in the presence of various concentrations of the drug and 100 µM nitrocefin as reporter substrate; the corrected Ki (considered the observed or apparent Km) value was finally determined using equation 2: The kinetic parameters of wild-type LRA-5 and its double substituted variant LRA-5^Y69Q/V166E are shown in Table 3. […] This behavior is expected considering that this variant lacks Glu166, which is essential to orient the deacylation water molecule during the regeneration stage of the active site. The exceptions were nitrocefin and, strikingly, cefepime. This behavior deserves more in-depth analysis. […] Overnight cultures of recombinant E. coli BL21(DE3) cells expressing wild-type LRA-5 and LRA-5^Y69Q/V166E were diluted (1/50) in 500 mL Lysogeny Broth (LB) supplemented with 30 µg/mL kanamycin and grown at 37°C until 0.6–0.8 OD units (λ = 600 nm) was reached. At this point, 1 mM isopropyl β-D-thiogalactopyranoside (IPTG) was added, and cultures were resumed for growing overnight at 20°C (200 rpm stirring). Then, cell pellets were obtained after centrifugation at 8,000 rpm for 20 min (4°C) in a Sorvall RC-5C (GS3 rotor) and resuspended in 20 mM Tris buffer (pH 7.5) + 500 mM NaCl (buffer A). Crude extracts were obtained by ultrasonic disruption (9 cycles of 5 min, 40% potency, 20 pulses/min, on ice bath) and clarified by centrifugation at 10,000 rpm for 20 min (4°C, SS34 rotor). Clarified supernatants were filtrated through 0.45 µm pore-size membranes, and loaded onto 5 mL HisTrap HP affinity columns (GE Healthcare Life Sciences, USA), connected to an ÄKTA-purifier (GE Healthcare, Uppsala, Sweden), and equilibrated with buffer A. The column was extensively washed to remove unbound proteins, and the LRA-5 proteins were eluted using a linear gradient (0%–100%; 1 mL/min flow rate) of buffer B consisting of buffer A + 500 mM imidazole (pH 7.5). Eluted fractions were analyzed by SDS-PAGE in 15% polyacrylamide gels. Fractions containing the pure LRA-5 variants were dialyzed against buffer A, and the histidine tag was removed by thrombin digestion (16 h at 25°C), using 10 U thrombin per mg protein for complete proteolysis, and later by affinity purification using 1 mL HisTrap HP columns (GE Healthcare Life Sciences, USA), following the same conditions as before (the pure LRA-5 is recovered in the pass-through, while the His-tag and any uncleaved fractions remain attached to the column). The protein purity was assessed by Coomassie blue staining on 15% SDS polyacrylamide gels, and protein concentration was determined by UV absorbance at 280 nm and calculated according to the Lambert-Beer law. The fractions of purified enzymes were stored at −80°C for subsequent kinetics and crystallographic assays.

[2] = test system: O=C(Cc1cccs1)N[C@@H]1C(=O)N2C(C(=O)O)=C(/C=C/c3ccc([N+](=O)[O-])cc3[N+](=O)[O-])CS[C@H]12; assay: purified protein, by the assay type; parameters: steady-state beta-lactam hydrolysis kinetics with purified LRA-5; Km (apparent Km via nitrocefin competition for poor substrates); conditions: pH 7.5
Method: as §1

[3] = test system: CC1(C)S[C@@H]2[C@H](NC(=O)[C@H](N)c3ccccc3)C(=O)N2[C@H]1C(=O)O; assay: purified protein, by the assay type; parameters: steady-state beta-lactam hydrolysis kinetics with purified LRA-5; Km (apparent Km via nitrocefin competition for poor substrates); conditions: pH 7.5
Method: as §1

[4] = test system: CO/N=C(\C(=O)N[C@@H]1C(=O)N2C(C(=O)O)=C(CSc3nc(=O)c(=O)[nH]n3C)CS[C@H]12)c1csc(N)n1; assay: purified protein, by the assay type; parameters: steady-state beta-lactam hydrolysis kinetics with purified LRA-5; Km (apparent Km via nitrocefin competition for poor substrates); conditions: pH 7.5
Method: as §1

[5] = test system: C[C@H]1[C@H](NC(=O)/C(=N\OC(C)(C)C(=O)O)c2csc(N)n2)C(=O)N1S(=O)(=O)O; assay: purified protein, by the assay type; parameters: steady-state beta-lactam hydrolysis kinetics with purified LRA-5; Km (apparent Km via nitrocefin competition for poor substrates); conditions: pH 7.5
Method: as §1

[6] = test system: CO/N=C(\C(=O)N[C@@H]1C(=O)N2C(C(=O)[O-])=C(C[N+]3(C)CCCC3)CS[C@H]12)c1csc(N)n1; assay: steady-state hydrolysis kinetics with pure enzyme (Km), no-enzyme control; type: biochemical, uncultured bacterium BLR5
From the text: steady-state hydrolysis kinetics with pure enzyme (Km), no-enzyme control on LRA-5 | The exceptions were nitrocefin and, strikingly, cefepime.

[7] = test system: C[C@@H](O)[C@H]1C(=O)N2C(C(=O)O)=C(SCCN=CN)C[C@H]12; assay: steady-state hydrolysis kinetics with pure enzyme (Km); type: biochemical, uncultured bacterium BLR5
[8] = test system: CC(=O)OCC1=C(C(=O)O)N2C(=O)[C@@H](NC(=O)Cc3cccs3)[C@H]2SC1; assay: as above; type: biochemical, uncultured bacterium BLR5
[9] = test system: O=C(Cc1cccs1)N[C@@H]1C(=O)N2C(C(=O)O)=C(/C=C/c3ccc([N+](=O)[O-])cc3[N+](=O)[O-])CS[C@H]12; assay: as above; type: biochemical, uncultured bacterium BLR5
[10] = test system: CC1(C)S[C@@H]2[C@H](NC(=O)[C@H](N)c3ccccc3)C(=O)N2[C@H]1C(=O)O; assay: as above; type: biochemical, uncultured bacterium BLR5
[11] = test system: C[C@@H](O)[C@H]1C(=O)N2C(C(=O)O)=C(S[C@@H]3CN[C@H](C(=O)N(C)C)C3)[C@H](C)[C@H]12; assay: as above; type: biochemical, uncultured bacterium BLR5
[12] = test system: CO/N=C(\C(=O)N[C@@H]1C(=O)N2C(C(=O)O)=C(CSc3nc(=O)c(=O)[nH]n3C)CS[C@H]12)c1csc(N)n1; assay: as above; type: biochemical, uncultured bacterium BLR5
LRA-5 = molecular target: T1, LRA-5 (uncultured bacterium BLR5, UniProt B5L5W7); assay: biochemical; parameters: time-dependent inactivation of purified LRA-5 by clavulanate, 100 uM nitrocefin as reporter substrate; conditions: wild-type LRA-5
T1 construct: gene blaLRA-5
Method: For irreversible inhibitors like clavulanic acid, the rate constant of inactivation, kinact, was measured directly by time-dependent inactivation of LRA-5 variants using a fixed concentration of enzyme and 100 µM nitrocefin as reporter and increasing concentrations of the inhibitor. The observed rate constant for inactivation (kobs) was determined by nonlinear least-squares fitting of the data using equation 3, as described elsewhere ([42]). […] This behavior is not entirely striking, as it may be related to the fact that the absence of Glu166 in the wild-type variant could still favor the inhibition of clavulanate, due to the absence of the water molecule that normally “competes” with inhibitors during acylation ([29]). Overnight cultures of recombinant E. coli BL21(DE3) cells expressing wild-type LRA-5 and LRA-5^Y69Q/V166E were diluted (1/50) in 500 mL Lysogeny Broth (LB) supplemented with 30 µg/mL kanamycin and grown at 37°C until 0.6–0.8 OD units (λ = 600 nm) was reached. […] Eluted fractions were analyzed by SDS-PAGE in 15% polyacrylamide gels. […] The protein purity was assessed by Coomassie blue staining on 15% SDS polyacrylamide gels, and protein concentration was determined by UV absorbance at 280 nm and calculated according to the Lambert-Beer law. […]

T1 sequence (B5L5W7 entry or part of it): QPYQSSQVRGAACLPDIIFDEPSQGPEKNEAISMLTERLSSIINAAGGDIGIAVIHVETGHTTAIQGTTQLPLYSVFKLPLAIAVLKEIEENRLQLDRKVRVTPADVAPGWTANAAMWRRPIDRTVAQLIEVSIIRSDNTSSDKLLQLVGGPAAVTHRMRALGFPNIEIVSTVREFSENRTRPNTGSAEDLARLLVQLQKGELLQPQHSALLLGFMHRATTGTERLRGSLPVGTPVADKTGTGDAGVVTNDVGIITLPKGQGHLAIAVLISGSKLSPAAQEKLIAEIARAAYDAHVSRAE

LRA-5 (uncultured bacterium BLR5) gave a Km [1] of 35 ± 4 µM, a kcat [1] of 0.005 ± 0.0008 s⁻¹ and a kcat/Km [1] of 143 ± 28 M⁻¹ s⁻¹. It also gave a Km [2] of 8 ± 2 µM, a kcat [2] of 0.045 ± 0.001 s⁻¹ and a kcat/Km [2] of 5600 ± 1400 M⁻¹ s⁻¹. For the same compound, the Km [3] was 65 ± 13 µM, the kcat [3] was 0.01 ± 0.002 s⁻¹ and the kcat/Km [3] was 154 ± 44 M⁻¹ s⁻¹. For the same compound, the Km [4] was 11 ± 2 µM, the kcat [4] was 3.6e-06 ± 6e-07 s⁻¹ and the kcat/Km [4] was 0.32 ± 0.08 M⁻¹ s⁻¹. For the same compound, the kcat [5] was 2e-05 ± 3e-06 s⁻¹, the kcat/Km [5] was under 0.02 M⁻¹ s⁻¹ and the Km [6] was 10.0 ± 0.5 µM. For the same compound, the kcat [6] was 0.02 ± 0.006 s⁻¹ and the kcat/Km [6] was 2000 ± 100 M⁻¹ s⁻¹.
Compound “LRA-5^Y69Q/V166E (uncultured bacterium BLR5; V199E/Y100Q)” has a Km [7] of 3.0 ± 0.1 µM, a kcat [7] of 0.006 ± 0.0002 s⁻¹ and a kcat/Km [7] of 1920 ± 86 M⁻¹ s⁻¹. For the same compound, the Km [8] was 14 ± 3 µM, the kcat [8] was 0.025 ± 0.001 s⁻¹ and the kcat/Km [8] was 1780 ± 389 M⁻¹ s⁻¹. For the same compound, the Km [9] was 32 ± 4 µM, the kcat [9] was 4.8 ± 0.3 s⁻¹ and the kcat/Km [9] was 150000 ± 21000 M⁻¹ s⁻¹. The Km [10] was 4.0 ± 0.2 µM, the kcat [10] was 0.002 ± 0.0006 s⁻¹ and the kcat/Km [10] was 500 ± 152 M⁻¹ s⁻¹. The Km [11] was 5.0 ± 0.6 µM, the kcat [11] was 0.003 ± 0.0007 s⁻¹ and the kcat/Km [11] was 600 ± 157 M⁻¹ s⁻¹. For the same compound, the Km [12] was 29 ± 9 µM, the kcat [12] was 0.107 ± 0.01 s⁻¹ and the kcat/Km [12] was 3690 ± 1200 M⁻¹ s⁻¹.
O=C(O)[C@H]1/C(=C/CO)O[C@@H]2CC(=O)N21 [Clavulanate] was tested, and the kinact (LRA-5; read-out: LRA-5 (wild-type) / kcat (s^−1) / NH / kinact) was 0.005 ± 0.0001 s⁻¹ and the kinact/KI (LRA-5; read-out: LRA-5 (wild-type) / kcat/Km (M^−1 s^−1) / ND / kinact/K) was 833 ± 102 M⁻¹ s⁻¹.
